One molecule from patent publication US20230348614A1 (VISTERRA, published 2023) can be followed below.

Positions count from the first letter of the chain named.

One assay concerns the target T1, T143A (Homo sapiens, UniProt P18827).
T1 construct: clone of the alanine scanning library on HEK-293T cells; m17 with one substitution; also called CD138 T143A
T1 sequence (CD138 (SDC1), full length, point mutant, looked up): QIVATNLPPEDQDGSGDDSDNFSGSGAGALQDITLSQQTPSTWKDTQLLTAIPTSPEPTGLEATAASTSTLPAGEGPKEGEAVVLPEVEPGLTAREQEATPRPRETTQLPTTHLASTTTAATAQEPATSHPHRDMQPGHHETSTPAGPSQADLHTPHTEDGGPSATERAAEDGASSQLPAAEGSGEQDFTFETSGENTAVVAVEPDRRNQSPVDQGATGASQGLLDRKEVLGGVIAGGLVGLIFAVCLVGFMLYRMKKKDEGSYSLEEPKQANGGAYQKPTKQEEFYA
Briefly: alanine scan: flow cytometry on HEK-293T cells expressing the mutant clone, 4320 Fab 0.50 ug/mL, normalised to WT CD138; Range %WT Binding 6; Normalized 4320 vs. BB4 53.2. On the procedure: (§1) Serial dilutions of each MAb were tested for immunoreactivity against cells expressing target protein (WT) or vector alone. Validation of target expression and optimization of detection and binding of anti-CD138 antibodies both by flow cytometry was completed in replicate (N=4). The optimal screening concentration for each MAb was determined based on the raw signal values and signal-to-background calculations specifically optimized for each test article. Optimized parameters included the use of 10% goat serum as blocking reagent. Primary antibody staining was for 60 minutes at 25° C. Wash buffer include phosphate buffered saline (divalent metal ion free), pH 7.4. […] Secondary antibodies were diluted 1:400 and incubated for 30 minutes at 25° C.
(§2) Library screens of very-high-affinity mAbs can fail to yield critical residues for antibody binding due to deficiencies of such an assay to detect and differentiate critical vs. less critical binding based on affinity and quantification of cell binding. One common approach in the literature is the use of monovalent antibody derived fragments such as Fab usually weakens binding sufficiently to allow identification of critical residues for binding. […] Binding of each test Ab to each mutant clone in the alanine scanning library was determined, in duplicate, and likewise evaluated by flow cytometry.
In general terms: Flow cytometry measures light scatter and fluorescence of single cells or particles in a stream.

Another assay deals with T2, E111A (Homo sapiens, UniProt P18827).
T2 construct: clone of the alanine scanning library on HEK-293T cells; m17 with one substitution; also called CD138 E111A
T2 sequence (CD138 (SDC1), full length, point mutant, looked up): T1 sequence (CD138 (SDC1), full length, point mutant, looked up) with E89A, A121T
Briefly: alanine scan: flow cytometry on HEK-293T cells expressing the mutant clone, 4320 Fab 0.50 ug/mL, normalised to WT CD138; Range %WT Binding 8; Normalized 4320 vs. BB4 10.4. On the procedure: as §1, §2

The next assay addresses T3, L114A (Homo sapiens, UniProt P18827).
T3 construct: clone of the alanine scanning library on HEK-293T cells; m17 with one substitution; also called CD138 L114A
T3 sequence (CD138 (SDC1), full length, point mutant, looked up): T1 sequence (CD138 (SDC1), full length, point mutant, looked up) with L92A, A121T
Briefly: alanine scan: flow cytometry on HEK-293T cells expressing the mutant clone, 4320 Fab 0.50 ug/mL, normalised to WT CD138; Range %WT Binding 15; Normalized 4320 vs. BB4 30.8. On the procedure: as §1, §2

A further assay has as its target T4, D210A (Homo sapiens, UniProt P18827).
T4 construct: clone of the alanine scanning library on HEK-293T cells; m17 with one substitution; also called CD138 D210A
T4 sequence (CD138 (SDC1), full length, point mutant, looked up): T1 sequence (CD138 (SDC1), full length, point mutant, looked up) with A121T, D188A
Briefly: alanine scan: flow cytometry on HEK-293T cells expressing the mutant clone, 4320 Fab 0.50 ug/mL, normalised to WT CD138; Range %WT Binding 15; Normalized 4320 vs. BB4 56.7. The procedure:
as §1, §2

The target of a further assay is T5, T188A (Homo sapiens, UniProt P18827).
T5 construct: clone of the alanine scanning library on HEK-293T cells; m17 with one substitution; also called CD138 T188A
T5 sequence (CD138 (SDC1), full length, point mutant, looked up): T1 sequence (CD138 (SDC1), full length, point mutant, looked up) with A121T, T166A
Briefly: alanine scan: flow cytometry on HEK-293T cells expressing the mutant clone, 4320 Fab 0.50 ug/mL, normalised to WT CD138; Range %WT Binding 29; Normalized 4320 vs. BB4 59.8. The procedure: as §1, §2

B1: Fab fragment of mAb 4320 (Fab, V domains shown)
VH: QVQLVQSGAEVKKPGASVKVSCKASGYSFSSYYMHWVRQAPGQGLEWMGTIHPSDSTTNYNQKFQGRVTMTVDTSTRTAYMELSSLRSEDTAVYYCANFVYWGQGTTVTVSS
VL: DIVMTQTPLSLSVTPGQPASISCKSSKSLLYKDGKTYLNWFLQKPGQSPQLLIYVVSTRASGVPDRFSGSGSGTDFTLKISRVEAEDVGVYYCQQLVEYPYTFGQGTKLEIKR
modifications: N-terminal Q1 observed as pyroglutamic acid (PCA) in the 138-2-5 complex
notes: In the crystal structures heavy chain residues 1-213 were traced; also called Fab4320
Take B1: the “Mean %WT Binding” value with T143A amounted to 30.8 %WT; with E111A it was 13 %WT; with L114A it was 36.2 %WT; in the assay with D210A, 42.7 %WT; with T188A, 57.4 %WT.
